For 40 molecules, EC50 hC3 cleavage and EC50 of hC3 cleavage results are on record in patent US20240018502A1.

Changes are numbered by the printed parent chain. Numbers in names are those of the source.

In this assay the target is plasma purified human complement protein C3 (human) (UniProt P01024). Description: cell-based or functional assay.
Sequence of plasma purified human complement protein C3 (human) (P01024 23-667, chain 1 of 2): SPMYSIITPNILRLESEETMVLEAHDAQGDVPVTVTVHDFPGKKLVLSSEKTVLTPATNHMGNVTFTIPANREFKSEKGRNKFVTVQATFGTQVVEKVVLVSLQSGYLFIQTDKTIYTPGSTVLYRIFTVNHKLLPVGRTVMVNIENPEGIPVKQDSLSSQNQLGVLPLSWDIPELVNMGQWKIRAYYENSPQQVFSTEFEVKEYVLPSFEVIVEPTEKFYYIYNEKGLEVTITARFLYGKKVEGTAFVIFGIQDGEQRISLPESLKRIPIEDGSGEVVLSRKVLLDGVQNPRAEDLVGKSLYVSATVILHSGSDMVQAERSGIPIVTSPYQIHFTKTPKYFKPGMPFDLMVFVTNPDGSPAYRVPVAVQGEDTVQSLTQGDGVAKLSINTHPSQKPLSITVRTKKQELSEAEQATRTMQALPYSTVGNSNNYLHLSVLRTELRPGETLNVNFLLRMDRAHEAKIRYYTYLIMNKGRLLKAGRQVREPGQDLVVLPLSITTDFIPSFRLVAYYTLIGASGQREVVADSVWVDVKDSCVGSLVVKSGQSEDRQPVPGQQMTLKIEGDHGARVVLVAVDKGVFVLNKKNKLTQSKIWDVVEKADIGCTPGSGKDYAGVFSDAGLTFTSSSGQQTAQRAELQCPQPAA
Sequence of plasma purified human complement protein C3 (human) (P01024 672-1663, chain 2 of 2): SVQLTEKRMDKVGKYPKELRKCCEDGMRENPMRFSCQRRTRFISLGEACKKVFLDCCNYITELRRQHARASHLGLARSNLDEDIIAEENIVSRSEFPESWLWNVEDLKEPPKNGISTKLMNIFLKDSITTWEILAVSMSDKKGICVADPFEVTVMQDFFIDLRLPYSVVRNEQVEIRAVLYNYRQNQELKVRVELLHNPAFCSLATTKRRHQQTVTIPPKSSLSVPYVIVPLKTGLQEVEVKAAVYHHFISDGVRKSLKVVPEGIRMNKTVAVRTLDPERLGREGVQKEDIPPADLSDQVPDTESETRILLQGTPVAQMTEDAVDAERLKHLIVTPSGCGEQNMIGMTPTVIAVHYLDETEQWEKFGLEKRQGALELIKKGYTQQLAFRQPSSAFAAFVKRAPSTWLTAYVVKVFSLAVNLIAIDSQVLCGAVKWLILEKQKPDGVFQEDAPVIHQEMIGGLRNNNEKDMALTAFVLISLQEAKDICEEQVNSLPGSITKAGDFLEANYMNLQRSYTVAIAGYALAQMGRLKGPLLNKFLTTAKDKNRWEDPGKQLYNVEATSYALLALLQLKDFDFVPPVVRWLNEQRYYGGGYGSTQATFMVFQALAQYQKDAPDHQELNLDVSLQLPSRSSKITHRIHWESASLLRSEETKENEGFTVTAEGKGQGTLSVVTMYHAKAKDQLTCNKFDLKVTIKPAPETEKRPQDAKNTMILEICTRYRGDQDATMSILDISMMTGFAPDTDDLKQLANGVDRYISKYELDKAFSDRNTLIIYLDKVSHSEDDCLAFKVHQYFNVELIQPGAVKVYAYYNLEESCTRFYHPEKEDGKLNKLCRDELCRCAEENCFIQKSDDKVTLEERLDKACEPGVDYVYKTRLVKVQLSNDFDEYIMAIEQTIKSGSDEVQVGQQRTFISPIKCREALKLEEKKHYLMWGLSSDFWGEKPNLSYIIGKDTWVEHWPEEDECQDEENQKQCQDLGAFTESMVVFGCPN

B1: MTSP-1 protease domain Q38H/I41A/D60bV/F60eR/Y60gW/D96F/F97D/ins97aE/T98G/F99M/C122S/G151N/Q175L/Q192R (enzyme)
chain: VVGGTDADEGEWPWQVSLHALGHGHACGASLISPNWLVSAAHCYIDVRGRRWSDPTQWTAFLGLHDQSQRSAPGVQERRLKRIISHPFFNFDEGMDYDIALLELEKPAEYSSMVRPISLPDASHVFPAGKAIWVTGWGHTQYGGTNALILQKGEIRVINQTTCENLLPQLITPRMMCVGFLSGGVDSCRGDSGGPLSSVEADGRIFQAGVVSWGDGCAQRNKPGVYTRLPLFRDWIKENTGV
Take B1: the EC50 hC3 cleavage amounted to 13.1 nM.

B2: MTSP-1 Q38H/I41S/D60bT/F60eS/Y60gW/D96K/ins97aV/F97G/T98P/F99L/C122S/G151H/Q175L/Q192D (enzyme)
chain: B1 chain with A26S, V47T, R50S, F91K, D92G, E93V, G94P, M95L, N146H, R189D
B2 registered an EC50 of hC3 cleavage of 6.86 nM.

B3: MTSP-1 protease domain Q38H/I41A/D60bV/F60eR/Y60gW/D96F/F97E/ins97aS/T98G/F99M/C122S/G151N/Q175L/Q192G (enzyme)
chain: B1 chain with D92E, E93S, R189G
Consider B3, for which the EC50 hC3 cleavage is 21.3 nM.

B4: MTSP-1 protease domain Q38H/I41S/D60bT/F60eS/Y60gW/D96Y/F97N/ins97aE/T98S/F99L/C122S/G151H/Q175L/Q192D (enzyme)
chain: B1 chain with A26S, V47T, R50S, F91Y, D92N, G94S, M95L, N146H, R189D
With B4, the EC50 hC3 cleavage came to 4.53 nM.

B5: MTSP-1 protease domain Q38H/I41S/D60bT/F60eS/Y60gW/D96F/F97S/ins97aD/T98G/F99L/C122S/G151H/Q175L/Q192D (enzyme)
chain: B1 chain with A26S, V47T, R50S, D92S, E93D, M95L, N146H, R189D
On to B5, for which the EC50 hC3 cleavage was determined as 5.17 nM.

B6: MTSP-1 protease domain Q38H/I41S/D60bT/F60eS/Y60gW/D96F/F97Y/ins97aD/T98G/F99L/C122S/G151H/Q175L/Q192D (enzyme)
chain: B1 chain with A26S, V47T, R50S, D92Y, E93D, M95L, N146H, R189D
Regarding B6, the EC50 hC3 cleavage is 3.13 nM.

B7: MTSP-1 protease domain Q38H/I41A/D60bV/F60eR/Y60gW/D96F/F97E/ins97aT/T98G/F99M/C122S/G151N/Q175L/Q192G (enzyme)
chain: B1 chain with D92E, E93T, R189G
In the case of B7, the EC50 hC3 cleavage was determined as 16.9 nM.

B8: MTSP-1 protease domain Q38H/I41A/D60bV/F60eR/Y60gW/D96W/F97D/ins97aT/T98G/F99L/C122S/G151N/Q175L/Q192G (enzyme)
chain: B1 chain with F91W, E93T, M95L, R189G
As for B8, the EC50 hC3 cleavage is 4.9 nM.

B9: MTSP-1 protease domain Q38H/I41A/D60bV/F60eR/Y60gW/D96W/F97D/ins97aD/T98G/F99L/C122S/G151N/Q175L/Q192G (enzyme)
chain: B1 chain with F91W, E93D, M95L, R189G
With B9, the EC50 hC3 cleavage was 5.28 nM.

B10: MTSP-1 protease domain Q38H/I41S/D60bT/F60eS/Y60gW/D96Y/F97R/ins97aD/T98G/F99L/C122S/G151H/Q175L/Q192D (enzyme)
chain: B1 chain with A26S, V47T, R50S, F91Y, D92R, E93D, M95L, N146H, R189D
In turn, B10 gave an EC50 hC3 cleavage of 5.71 nM.

B11: MTSP-1 protease domain Q38H/I41A/D60bT/F60eK/Y60gF/F97T/ins97aE/T98G/F99L/C122S/H143R/G151N/Q175L/Q192V (enzyme)
chain: B1 chain with V47T, R50K, W52F, F91D, D92T, M95L, H139R, R189V
In turn, B11 displayed an EC50 hC3 cleavage of 24.5 nM.

B12: MTSP-1 protease domain Q38H/I41A/D60bV/F60eR/Y60gW/D96F/F97S/ins97aH/T98G/F99L/C122S/G151N/Q175L/Q192G (enzyme)
chain: B1 chain with D92S, E93H, M95L, R189G
Molecule B12 displayed an EC50 hC3 cleavage of 3.14 nM.

B13: MTSP-1 protease domain Q38H/I41A/D60bV/F60eR/Y60gW/D96F/F97Y/ins97aE/T98G/F99M/C122S/G151N/Q175L/Q192R (enzyme)
chain: B1 chain with D92Y
As for B13, the EC50 hC3 cleavage came out at 7.16 nM.

B14: MTSP-1 protease domain Q38H/I41A/D60bV/F60eR/Y60gW/D96F/F97Y/ins97aN/T98G/F99M/C122S/G151N/Q175L/Q192G (enzyme)
chain: B1 chain with D92Y, E93N, R189G
In the case of B14, the EC50 hC3 cleavage came out at 3.76 nM.

B15: MTSP-1 Q38H/I41S/D60bT/F60eS/Y60gW/F97D/ins97aV/T98P/F99L/C122S/G151H/Q175L/Q192E (enzyme)
chain: B1 chain with A26S, V47T, R50S, F91D, E93V, G94P, M95L, N146H, R189E
For the molecule B15, the EC50 of hC3 cleavage is 6.68 nM.

B16: MTSP-1 protease domain Q38Y/I41A/D60bT/F60eG/Y60gW/D96V/F97N/T98G/F99L/C122S/G151H/Q175L/Q192D (enzyme)
chain: VVGGTDADEGEWPWQVSLHALGYGHACGASLISPNWLVSAAHCYIDTRGGRWSDPTQWTAFLGLHDQSQRSAPGVQERRLKRIISHPFFNVNGLDYDIALLELEKPAEYSSMVRPISLPDASHVFPAGKAIWVTGWGHTQYGGTHALILQKGEIRVINQTTCENLLPQLITPRMMCVGFLSGGVDSCDGDSGGPLSSVEADGRIFQAGVVSWGDGCAQRNKPGVYTRLPLFRDWIKENTGV
Take B16: the EC50 hC3 cleavage is 5.06 nM.

B17: MTSP-1 protease domain I41S/D60bT/F60eR/Y60gW/D96M/F97N/T98G/F99L/C122S/G151N/Q175L/Q192D (enzyme)
chain: B16 chain with Y23Q, A26S, G50R, V91M, H145N
B17: the EC50 hC3 cleavage is 9.47 nM.

B18: MTSP-1 protease domain Q38H/I41S/F60eT/Y60gW/D96M/F97N/T98G/F99L/C122S/G151N/Q175L/Q192D (enzyme)
chain: B16 chain with Y23H, A26S, T47D, G50T, V91M, H145N
In the case of B18, the EC50 hC3 cleavage was 35.7 nM.

B19: MTSP-1 protease domain Q38Y/I41S/D60bT/F60eR/D96M/F97N/T98G/F99L/C122S/G151N/Q175L/Q192D (enzyme)
chain: B16 chain with A26S, G50R, W52Y, V91M, H145N
B19: the EC50 hC3 cleavage amounted to 16.4 nM.

B20: MTSP-1 protease domain Q38Y/D60bT/F60eR/Y60gW/D96M/F97N/T98G/F99L/C122S/G151N/Q175L/Q192D (enzyme)
chain: B16 chain with A26I, G50R, V91M, H145N
On to B20, for which the EC50 hC3 cleavage is 47.7 nM.

B21: MTSP-1 protease domain Q38E/I41S/D60bW/F60eG/D96M/F97N/T98G/F99L/C122S/G151N/Q175L/Q192D (enzyme)
chain: B16 chain with Y23E, A26S, T47W, W52Y, V91M, H145N
With B21, the EC50 hC3 cleavage was 22.3 nM.

B22: MTSP-1 protease domain Q38Y/I41S/D60bT/F60eR/Y60gW/D96M/F97N/T98G/C122S/G151N/Q175L/Q192D (enzyme)
chain: B16 chain with A26S, G50R, V91M, L94F, H145N
Molecule B22 displayed an EC50 hC3 cleavage of 33.6 nM.

B23: MTSP-1 protease domain Q38Y/I41S/D60bT/Y60gW/D96M/F97N/T98G/F99L/C122S/G151N/Q175L/Q192D (enzyme)
chain: B16 chain with A26S, G50F, V91M, H145N
Turning to B23, the EC50 hC3 cleavage came out at 3.08 nM.

B24: MTSP-1 protease domain Q38Y/I41S/D60bT/F60eR/Y60gW/F97N/T98G/F99L/C122S/G151N/Q175L/Q192D (enzyme)
chain: B16 chain with A26S, G50R, V91D, H145N
For the molecule B24, the EC50 hC3 cleavage came to 15.9 nM.

B25: MTSP-1 protease domain Q38Y/I41S/D60bT/F60eR/Y60gW/D96M/F97N/T98G/F99L/C122S/G151N/Q175L/Q192D (enzyme)
chain: B16 chain with A26S, G50R, V91M, H145N
Consider B25, for which the EC50 hC3 cleavage was 5.12 nM.

B26: MTSP-1 protease domain Q38E/I41S/D60bV/F60eK/Y60gW/D96M/F97N/T98G/F99L/C122S/G151N/Q175L/Q192D (enzyme)
chain: B16 chain with Y23E, A26S, T47V, G50K, V91M, H145N
As to B26, the EC50 hC3 cleavage is 19.1 nM.

B27: MTSP-1 protease domain Q38Y/I41S/D60bT/F60eR/Y60gW/D96M/F97N/T98G/F99L/C122S/G151N/Q175L (enzyme)
chain: B16 chain with A26S, G50R, V91M, H145N, D188Q
For B27, the EC50 hC3 cleavage is 1.08 nM.

B28: MTSP-1 Q38H/I41A/D60bV/F60eR/Y60gW/D96I/F97N/T98G/F99L/C122S/G151N/Q175L/Q192D (enzyme)
chain: B16 chain with Y23H, T47V, G50R, V91I, H145N
As for B28, the EC50 of hC3 cleavage worked out at 2.87 nM.

B29: MTSP-1 protease domain Q38Y/I41S/D60bV/F60eR/Y60gF/D96M/F97N/T98G/F99L/C122S/G151N/Q175L/Q192D (enzyme)
chain: B16 chain with A26S, T47V, G50R, W52F, V91M, H145N
As to B29, the EC50 hC3 cleavage worked out at 5.25 nM.

B30: MTSP-1 protease domain Q38K/I41G/D60bT/F60eG/Y60gW/D96P/F97N/T98G/F99L/C122S/G151N/Q175L/Q192D (enzyme)
chain: B16 chain with Y23K, A26G, V91P, H145N
Take B30: the EC50 hC3 cleavage was found to be 27.4 nM.

B31: MTSP-1 protease domain Q38E/I41S/D60bV/F60eK/Y60gW/D96P/F97N/T98G/F99L/C122S/G151N/Q175L/Q192D (enzyme)
chain: B16 chain with Y23E, A26S, T47V, G50K, V91P, H145N
As for B31, the EC50 hC3 cleavage came out at 45.9 nM.

B32: MTSP-1 protease domain Q38H/I41S/D60bT/F60eG/D96P/F97N/T98G/F99L/C122S/G151Q/Q175L/Q192D (enzyme)
chain: B16 chain with Y23H, A26S, W52Y, V91P, H145Q
B32 registered an EC50 hC3 cleavage of 34.2 nM.

B33: MTSP-1 protease domain Q38H/I41S/D60bT/F60eK/D96V/F97N/T98G/F99L/C122S/G151N/Q175L/Q192D (enzyme)
chain: B16 chain with Y23H, A26S, G50K, W52Y, H145N
For B33, the EC50 hC3 cleavage stood at 13.3 nM.

B34: MTSP-1 protease domain Q38Y/I41S/D60bT/F60eR/Y60gW/D96M/F97N/T98G/F99L/C122S/G151N/Q192D (enzyme)
chain: B16 chain with A26S, G50R, V91M, H145N, L169Q
Regarding B34, the EC50 hC3 cleavage is 56.7 nM.

B35: MTSP-1 protease domain Q38Y/I41S/F60eR/Y60gW/D96M/F97N/T98G/F99L/C122S/G151N/Q175L/Q192D (enzyme)
chain: B16 chain with A26S, T47D, G50R, V91M, H145N
B35 registered an EC50 hC3 cleavage of 10.4 nM.

B36: MTSP-1 protease domain Q38K/I41G/D60bT/F60eG/Y60gW/D96L/F97N/T98G/F99L/C122S/G151N/Q175L/Q192D (enzyme)
chain: B16 chain with Y23K, A26G, V91L, H145N
With B36, the EC50 hC3 cleavage came to 12.5 nM.

B37: MTSP-1 protease domain Q38M/I41S/F60eH/Y60gW/D96Y/F97N/T98G/F99L/C122S/G151N/Q175L/Q192D (enzyme)
chain: B16 chain with Y23M, A26S, T47D, G50H, V91Y, H145N
In the case of B37, the EC50 hC3 cleavage turned out to be 21.6 nM.

B38: MTSP-1 protease domain Q38Y/I41S/D60bT/F60eR/Y60gW/D96M/F97N/F99L/C122S/G151N/Q175L/Q192D (enzyme)
chain: B16 chain with A26S, G50R, V91M, G93T, H145N
With B38, the EC50 hC3 cleavage was 10.8 nM.

B39: MTSP-1 protease domain Q38H/I41S/D60bT/F60eK/Y60gF/D96M/F97N/T98G/F99L/C122S/G151N/Q175L/Q192D (enzyme)
chain: B16 chain with Y23H, A26S, G50K, W52F, V91M, H145N
B39 returned an EC50 hC3 cleavage of 20.6 nM.

B40: MTSP-1 protease domain Q38Y/I41S/D60bT/F60eR/Y60gW/D96M/T98G/F99L/C122S/G151N/Q175L/Q192D (enzyme)
chain: B16 chain with A26S, G50R, V91M, N92F, H145N
Molecule B40 returned an EC50 hC3 cleavage of 3.27 nM.
